One block for each molecule: values may come before it.
Tests used:
Porcine IF = target: T1, Porcine IF (Sus scrofa, UniProt A0A8D1ENZ1); test: Intrinsic factor binding affinity, competition binding assay with 57Co-cyanocobalamin (Scatchard); conditions: for Kd: association constant, porcine IF, conjugate 123 nM, 30 min
T1 construct: purchased Sigma Chemical Company, St. Louis, Mo
Method: The binding affinity of conjugates of VB12 and therapeutic proteins to intrinsic factor (IF) was determined using a competition binding assay based on the procedure described by Mathan et al. in the Journal of Clinical Investigation, Volume 54, pages 598-608 (1974). The assay was conducted in phosphate buffered saline (PBS) containing 1 mM calcium chloride, 0.5 mM magnesium chloride and 1% by weight of bovine serum albumin (BSA) devoid of IF and cyanocobalamin (Sigma Chemical Company, St. Louis, Mo.). Porcine IF (final concentration 1.845 nM) was added to a large excess of the VB12 -protein conjugate (123 nM), together with a range of concentrations of ^57 Co-cyanocobalamin ([…] to 12.3 nM), specific activity 10-20 μCi/μg, in a final volume of 600 μl of PBS. The solution was vortexed and incubated at room temperature for thirty minutes, before adding 1 ml of freshly prepared dextran-coated charcoal (0.5% by weight of charcoal, 0.1% by weight of dextran in PBS) at 4° C. After incubation for ten minutes, the mixture was centrifuged for fifteen minutes at 1000×G (2500 rpm) and 4° C. in a IEC Centra-8R benchtop centrifuge, VWR Scientific, South Plainfield, N.J. The supernatant was decanted from the resulting pellet and assayed in a Cobra 2000 Gamma counter (Hewlett-Packard, Palo Alto, Calif.) to determine the amount of bound ^57 Co-cyanocobalamin.
The ratio of bound to free ^57 Co-cyanocobalamin versus the bound concentration of ^57 Co-cyanocobalamin was plotted according to the method of Scatchard, Annals of the New York Academy of Science, Volume 51, pages 660-672 (1949).
-Slope=-Kapp =-KL /(1+Kc [Lf ])
Kc =binding affinity of conjugate
KL =binding affinity of cyanocobalamin
[Lf ]=concentration of unbound conjugate
The use of a large excess of the conjugate permitted the value of [Lf ] to be treated as a constant (123 nM).

[1] = Stupperich and Nexo 1991; cited from earlier work
[2] = test system: exhypoxic polycythemic mice; test: In vivo exhypoxic polycythemic mouse assay of VB12-EPO conjugates; conditions: i.p., vs EPO
Method: The hematopoietic activity of EPO after conjugation to 5'-O-[glutaroyl]cyanocobalamin was determined in vivo in exhypoxic polycythemic mice using the procedure of Cotes and Bingham described in Nature, Volume 191, pages 1065-1067 (1961).
The dilution of the complexes prior to intraperitoneal (i.p.) injection was based on the protein content derived from the A280 of the sample.

mouse bone marrow cells = test: In vitro thymidine uptake assay of VB12-G-CSF conjugates; assay type: cell-based; conditions: for Biological Activity of Conjugate, % activity compared to nonconjugated protein: vs G-CSF
Method: The bioactivity of VB12 -G-CSF in vitro after conjugation to 5'-O-[glutaroyl]cyanocobalamin was determined by measuring the stimulated in vitro uptake of ^3 H-thymidine into mouse bone marrow cells.
Bone marrow cells were collected from the hind legs of female Balb/C mice by flushing the bone with PBS. The cells were purified on a Ficoll-Paque density gradient (Pharmacia) and cultured in McCoys' 5A medium with 10% fetal bovine serum (FBS), 10 mM sodium pyruvate, 1×minimum essential medium (MEM) amino acids, 40 micromolar (μM) of essential amino acids, 0.04% by weight of sodium bicarbonate, 1×MEM vitamin solution, 10 mM L-glutamine and 0.005% by weight of gentamicin sulfate. After incubation for two hours at 37° C. under a 5% carbon dioxide-containing atmosphere, non-adherent cells were collected in the supernatant and the number of viable cells was counted in a hemocytometer.
A standard curve was prepared over a range from 0.07 to 1500 Units of G-CSF per milliliter (U/ml), and the complexes were diluted to about 0.3 to 30 U/ml prior to being assayed. To a 96-well plate was added, in triplicate, 100 μl of the standard or test material and 100 μl of culture medium containing 4×10^4 non-adherent mouse bone marrow cells. After incubating the plates for sixty eight hours at 37° C. under a 5% carbon dioxide atmosphere, 0.5 μCi of thymidine [methyl-3H], 20 Ci/mmol (NEN, Boston, Mass.) was added to each well. The plates were incubated as before for an additional five hours. The cells were collected on filter paper, rinsed with water (ten times) and ethanol (one time), and then counted in Biofluor scintillation fluid in a beta plate scintillation counter (LKB, Piscataway, N.J., Model 1205-001).
The bioactivity of the test material, in Units per milligram (U/mg), was determined from the standard curve of the G-CSF stimulated uptake of thymidine [methyl-^3 H].

[3] = Binding analysis of recombinant rat IF (rrIF)

T1 sequence (A0A8D1ENZ1 29-425): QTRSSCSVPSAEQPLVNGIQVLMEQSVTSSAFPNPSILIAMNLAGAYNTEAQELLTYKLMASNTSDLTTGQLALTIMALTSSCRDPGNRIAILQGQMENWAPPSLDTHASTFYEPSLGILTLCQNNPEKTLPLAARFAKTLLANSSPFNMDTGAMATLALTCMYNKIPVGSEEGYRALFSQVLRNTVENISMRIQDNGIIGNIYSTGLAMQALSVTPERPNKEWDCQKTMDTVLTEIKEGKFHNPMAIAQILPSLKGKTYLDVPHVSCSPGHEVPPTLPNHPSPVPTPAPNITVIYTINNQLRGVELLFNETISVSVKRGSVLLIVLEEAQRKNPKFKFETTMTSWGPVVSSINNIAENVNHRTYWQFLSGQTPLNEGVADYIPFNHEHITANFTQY

Kd (Porcine IF): 1.35 nM
Molecule: 5'-O-[glutaroyl]-cyanocobalamin [Example 1]

Molecule: native human IF: native human intrinsic factor, literature value
binding affinity (Ka) of native human IF [1]: 2e+10 M⁻¹

Molecule: Example 13: conjugate of 5'-O-[glutaroyl]cyanocobalamin-adipic-1,6-dihydrazide with periodate-treated EPO (through sialic acids)
Biological Activity of Conjugate, % activity compared to nonconjugated protein [2]: 33 ± 14%

Kd (Porcine IF): 2.22 nM
B1: Example 2: conjugate of 5'-O-[glutaroyl]cyanocobalamin with G-CSF via the N-hydroxysuccinimide derivative (conjugate, UniProt P09919 31-207, looked up)
Granulocyte …: TPLGPASSLPQSFLLKCLEQVRKIQGDGAALQEKLVSECATYKLCHPEELVLLGHSLGIPWAPLSSCPSQALQLAGCLSQLHSGLFLYQGLLQALEGISPELGPTLDTLQLDVADFATTIWQQMEELGMAPALQPTQGAMPAFASAFQRRAGGVLVASHLQSFLEVSYRVLRHLAQP
modifications: cyanocobalamin conjugate
notes: conjugate of 5'-O-[glutaroyl]cyanocobalamin with G-CSF via the N-hydroxysuccinimide derivative

Kd (Porcine IF): 4 nM
B2: Example 7: conjugate of 5'-O-[glutaroyl]cyanocobalamin with G-CSF via 12-aminododecylamido-dithiopyridylpropionate (conjugate, UniProt P09919 31-207, looked up)
Granulocyte …: B1 Granulocyte …
modifications: cyanocobalamin conjugate via disulfide linker
notes: conjugate of 5'-O-[glutaroyl]cyanocobalamin with G-CSF via 12-aminododecylamido-dithiopyridylpropionate
Biological Activity of Conjugate, % activity compared to nonconjugated protein (mouse bone marrow cells): 33%

retention of non-conjugated VB12 binding affinity (Porcine IF): 1.6%
Kd (Porcine IF): 10.8 nM
B3: Example 8: conjugate of 5'-O-[glutaroyl]cyanocobalamin with a polyethylene glycol derivative of G-CSF (conjugate, UniProt P09919 31-207, looked up)
Granulocyte …: B1 Granulocyte …
modifications: PEG; cyanocobalamin conjugate
notes: conjugate of 5'-O-[glutaroyl]cyanocobalamin with a polyethylene glycol derivative of G-CSF
Biological Activity of Conjugate, % of G-CSF (mouse bone marrow cells): 4.4 % of G-CSF
Biological Activity of Conjugate, % of PEG-G-CSF (mouse bone marrow cells): 38 % of PEG-G-CSF

Kd (Porcine IF): 1.89 nM
B4: Example 10: conjugate with G-CSF via N-hydroxysuccinimidyl ester of 5'-O-[glutaroyl]cyanocobalamin-8-aminocaprylic acid (conjugate, UniProt P09919 31-207, looked up)
Granulocyte …: B1 Granulocyte …
modifications: cyanocobalamin conjugate via aminocaprylic linker
notes: conjugate with G-CSF via N-hydroxysuccinimidyl ester of 5'-O-[glutaroyl]cyanocobalamin-8-aminocaprylic acid
Biological Activity of Conjugate, % activity compared to nonconjugated protein (mouse bone marrow cells): 60%

binding affinity (Ka) of rrIF [3]: 8.58e+09 M⁻¹
B5: rrIF: recombinant form of rat IF produced in Chinese hamster ovary cells (protein, UniProt P17267 19-417, looked up)
Cobalamin binding intrinsic …: STRAQRSCSVPPDQQPWVNGLQLLMENSVTESDLPNPSILIAMNLASTYNLEAQKLLTYQLMASDSADLTNGQLALTIMALTSSCRDPGSKVSILQKNMESWTPSNLGAESSSFYGPALAILALCQKNSEATLPIAVRFAKTLMMESSPFSVDTGAVATLALTCMYNRIPVGSQENYRDLFGQALKVIVDNISLRIKADGIIGDIYSTGLAMQALSVTPEQPTKEWDCEKTMYTILKEIKQGKFQNPMSIAQILPSLKGKTYLDVPQVTCGPDHEVPPTLTDYPTPVPTSISNITVIYTINNQLRGVDLLFNVTIEVSVKSGSVLLAVLEEAQRRNHMFKFETTMTSWGLIVSSINNIAENVKHKTYWEFLSGKTPLGEGVAYYIPFNYEHITANFTQY

— patent US5574018A, “Conjugates of vitamin B12 and proteins” (Amgen Inc., priority 1994, dated 1996)
